Assay results: patent US20240301086A1 (APTEVO RESEARCH AND DEVELOPMENT, published 2024)
Where a chain is given by its changes, count along the chain named.

Columns and labels:
Experiment in all cases: SPR (Biacore T200), construct amine-coupled, Fcγ receptor at 4-6 µM as analyte
[1] = molecular target: T1, human Fcγ receptor IIA, R167 variant (human, UniProt P12318 36-218)
T1 construct: also called Type IIA R167
T1 sequence (looked up): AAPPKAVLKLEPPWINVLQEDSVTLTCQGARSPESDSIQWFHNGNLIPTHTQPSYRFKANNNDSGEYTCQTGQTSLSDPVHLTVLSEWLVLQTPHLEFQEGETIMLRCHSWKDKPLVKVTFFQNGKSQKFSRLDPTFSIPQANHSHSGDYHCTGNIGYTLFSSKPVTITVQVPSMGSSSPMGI
Experimental: (§1) The Fc region incorporated into anti-PSMA bispecific constructs contained mutations intended to reduce or abolish binding to common human and cynomolgus Fc gamma receptors. SPR experiments were conducted at 25° C. in HBS-EP+ with 0.2% BSA buffer on a Biacore T200 system to evaluate the impact of these mutations on binding. For these experiments, three flow cells of a CM5 sensor chip were immobilized with anti-PSMA bispecifics by standard amine coupling to a response level of ˜2000 RU. A blank immobilization was performed on flow cell #1 for purposes of background signal subtraction. Both human and cynomolgus monkey Fcγ receptors (purchased from R&D Systems) were diluted in HBS-EP+ with 0.2% BSA to 4-6 μM and then flowed as analytes at 30 μL/min for 120 seconds followed by a 240 second dissociation step. No regeneration step was required. Blank-subtracted sensorgrams were visually inspected for binding to each of the Fcγ receptor proteins. […] Attenuated binding to Fcγ receptors IIA (both polymorphic variants) and IIB/C was observed. PSMA01107 and PSMA01108 share the same Fc amino acid sequence and therefore equivalent Fcγ receptor binding behavior was expected.

[2] = molecular target: T2, human Fcγ receptor IIA, H167 variant (human, UniProt P12318 36-218)
T2 sequence (looked up): T1 sequence (looked up) with R132H
Experimental: as §1

human Fcγ receptor IIB/C = molecular target: T3, human Fcγ receptor IIB/C (human, UniProt P31994 46-217)
T3 sequence (looked up): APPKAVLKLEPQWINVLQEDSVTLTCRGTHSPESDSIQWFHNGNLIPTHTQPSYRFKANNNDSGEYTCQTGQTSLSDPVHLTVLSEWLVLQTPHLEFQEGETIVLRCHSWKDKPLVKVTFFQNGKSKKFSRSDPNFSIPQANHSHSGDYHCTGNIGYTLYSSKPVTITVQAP
Experimental: as §1

Measured: binding result

B1: PSMA01108 Anti-PSMA scFv x Fc x linker x Anti CD3 scFv; Anti PSMA scFv x Fc (bispecific antibody)
chain 1: QVQLVQSGAEVKKPGASVKVSCKASGYTFTDYYMHWVRQAPGQGLEWMGYFNPYNDYTRYAQKFQGRVTMTRDTSTSTVYMELSSLRSEDTAVYYCARSDGYYDAMDYWGQGTTVTVSSGGGGSGGGGSGGGGSGGGGSDIQMTQSPSSLSASVGDRVTITCRASKSISKYLAWYQQKPGKAPKLLIHSGSSLESGVPSRFSGSGSGTEFTLTISSLQPDDFATYYCQQHIEYPWTFGQGTKVEIKEPKSSDKTHTCPPCPAPPAAAPSVFLFPPKPKDTLMISRTPEVTCVVVDVSHEDPEVKFNWYVDGVEVHNAKTKPREEQYNSTYRVVSVLTVLHQDWLNGKEYKCAVSNKALPAPIEKTISKAKGQPREPQVYTLPPSRDELTKNQVSLWCLVKGFYPSDIAVEWESNGQPENNYKTTPPVLDSDGSFFLYSKLTVDKSRWQQGNVFSCSVMHEALHNHYTQKSLSLSPGGGGSPSDIQMTQSPSSLSASVGDRVTITCRASSSVSYMNWYQQKPGKAPKRWIYDSSKLASGVPSRFSGSGSGTDFTLTISSLQPEDFATYYCQQWSRNPPTFGQGTKVEIKGGGGSGGGGSGGGGSGGGGSQVQLVQSGAEVKKPGASVKVSCKASGYTFTRSTMHWVRQAPGQGLEWIGYINPSSAYTNYAQKFQGRVTLTADKSTSTAYMELSSLRSEDTAVYYCASPQVHYDYNGFPYWGQGTLVTVSS
chain 2: QVQLVQSGAEVKKPGASVKVSCKASGYTFTDYYMHWVRQAPGQGLEWMGYFNPYNDYTRYAQKFQGRVTMTRDTSTSTVYMELSSLRSEDTAVYYCARSDGYYDAMDYWGQGTTVTVSSGGGGSGGGGSGGGGSGGGGSDIQMTQSPSSLSASVGDRVTITCRASKSISKYLAWYQQKPGKAPKLLIHSGSSLESGVPSRFSGSGSGTEFTLTISSLQPDDFATYYCQQHIEYPWTFGQGTKVEIKEPKSSDKTHTCPPCPAPPAAAPSVFLFPPKPKDTLMISRTPEVTCVVVDVSHEDPEVKFNWYVDGVEVHNAKTKPREEQYNSTYRVVSVLTVLHQDWLNGKEYKCAVSNKALPAPIEKTISKAKGQPREPQVYTLPPSRDELTKNQVSLSCAVKGFYPSDIAVEWESNGQPENNYKTTPPVLDSDGSFFLVSKLTVDKSRWQQGNVFSCSVMHEALHNHYTQKSLSLSPG
notes: also called PSMA1108; PSAM01108
binds: [1] | [2] | human Fcγ receptor IIB/C
